Source: the MegaScale stability set (Tsuboyama et al. 2023)

B1: EHEE_rd2_1257 (parent)
chain: EEERTFTNEEEARKAKKEAEKRGLRVTVTKDGTTWRVRIG
B2: EEHEE_rd4_0763 (parent)
chain: LTVHVGNVTYHFDNPEQAEEWAKRMAKKYQGQIHVKDGQFRIE

Variants of: B1
Experiment: folding stability dG (cDNA display proteolysis); higher = more stable
Conditions: PBS, room temperature

Folding stability dG [kcal/mol], by site and new letter:
E20: Y 1.03
K21: A 2.53 | D 2.25 | E 2.25 | F 1.89 | G 2.11 | H 1.82 | I 1.93 | L 2.31 | M 2.45 | N 2.06 | Q 2.17 | R 2.19 | S 2.38 | T 1.88 | V 1.82 | W 1.71 | Y 1.82
R22: A 1.91 | C 1.55 | D 1.09 | E 1.23 | F 1.62 | G 1.02 | H 1.72 | I 1.59 | K 1.8 | L 2.19 | M 2.18 | N 1.72 | P -0.245 | Q 1.88 | S 1.44 | T 1.06 | V 1.45 | W 1.72 | Y 1.69
G23: A 0.188 | C 1.58 | D -0.065 | E -0.609 | F 0.9 | H 0.993 | K 0.384 | L 0.537 | M 0.537 | N 0.986 | Q 0.383 | R 0.397 | S 0.399 | V 0.034 | W 0.38 | Y 0.68
L24: A 0.982 | D 0.447 | E 0.879 | F 2.15 | G 0.057 | H 1.46 | I 1.16 | K 1.18 | M 1.79 | N 0.631 | Q 1.41 | R 1.19 | S 0.594 | T 0.162 | V 1.21 | W 1.61 | Y 2.08
R25: A 1.62 | D 1.23 | E 1.5 | F 2.07 | G 0.797 | H 2.15 | I 1.95 | K 2.06 | L 1.87 | M 1.81 | N 1.62 | P 1.47 | Q 1.89 | S 1.88 | T 1.9 | V 1.93 | W 1.98 | Y 2.07
V26: A 2.13 | F 0.359 | G 0.489 | I 0.589 | L 0.171 | M 0.445 | P -0.777 | S 0.809 | T 0.897 | W 0.008 | Y 0.032
T27: A 1.19 | D 1.05 | E 1.64 | F 1.83 | G 0.262 | H 1.57 | I 1.95 | K 1.43 | L 1.58 | M 1.53 | N 1.15 | Q 1.49 | R 1.62 | S 1.77 | V 1.88 | W 1.96 | Y 1.92
V28: A -0.179 | C 1.96 | F 1.45 | I 2.71 | L 2.58 | M 2.37 | Q -0.917 | T 0.613 | W 0.937 | Y 0.822
T29: A 1.29 | C 1.83 | D 1.2 | E 1.87 | F 2.32 | G 0.178 | H 1.7 | I 2.36 | K 1.34 | L 1.8 | M 1.83 | N 1.09 | Q 1.63 | R 1.51 | S 1.62 | V 2.18 | W 2.6 | Y 2.33
K30: A 1.53 | D 1.24 | E 1.31 | F 3.53 | G 1.32 | H 2.22 | I 1.66 | L 1.99 | M 1.75 | N 1.9 | P 0.867 | Q 2.13 | R 2.04 | S 2.14 | T 2.57 | V 1.83 | W 3.02 | Y 3.22
D31: A 1.41 | C 2.04 | E 2.15 | F 1.69 | G 0.303 | H 1.78 | I 2.22 | K 1.34 | L 1.74 | M 1.74 | N 1.57 | Q 1.7 | R 1.32 | S 1.72 | T 1.76 | V 2.27 | W 1.51 | Y 1.75
G32: A 0.985 | D 1.26 | E 1.26 | F 0.011 | H 0.713 | I -0.071 | K 0.693 | L 0.595 | M 0.351 | N 0.966 | Q 0.902 | R 0.337 | S 0.582 | T 0.399 | V 0.363 | Y 0.01
T33: A 2.13 | C 2.5 | D 3.11 | E 2.77 | F 2.18 | G 2.28 | H 2.11 | I 1.89 | K 2.05 | L 2.12 | M 2 | N 2.63 | P 2.58 | Q 2.27 | R 1.57 | S 2.15 | V 1.84 | W 1.65 | Y 2.15
T34: A 1.68 | D 1.53 | E 1.81 | F 2.53 | G 1.83 | H 2.12 | I 2.63 | K 1.97 | L 2.76 | M 2.37 | N 2.02 | Q 1.97 | R 1.87 | S 1.82 | V 2.62 | W 2.08 | Y 2.4
W35: A -0.238 | D -0.409 | E -0.181 | F 1.32 | G -0.505 | H 0.478 | I 1.3 | K -0.11 | L 0.579 | M 0.332 | N -0.29 | P 0.178 | Q -0.107 | R 0.023 | S -0.143 | T 0.358 | V 0.55 | Y 1.35
R36: A 0.9 | C 1.91 | E 0.524 | F 2.23 | G -0.199 | H 1.81 | I 3.03 | K 2.08 | L 2.15 | M 1.65 | N 1.12 | P 0.209 | Q 1.23 | S 1.17 | T 2.15 | V 2.78 | W 1.7 | Y 2.47
V37: C 1.05 | D 0.331 | E 0.078 | F 0.864 | I 1.7 | L 2.17 | M 1.61 | P 0.556 | W 0.056 | Y -0.22
R38: A 1.71 | D 1 | E 1.48 | F 2.23 | G 0.853 | H 1.94 | I 2.59 | K 2.08 | L 2.27 | M 2.04 | N 1.71 | Q 1.74 | S 1.93 | T 2.33 | V 2.45 | W 2.11 | Y 2.17
I39: A 0.675 | E 0.258 | F 1.75 | G -0.238 | H 0.156 | K -0.799 | L 1.31 | M 1.37 | N -0.51 | P 0.239 | Q 0.241 | R -0.309 | S 0.837 | T 1.27 | V 1.64 | W 1.62 | Y 1.66
G40: A 2.19 | D 2.18 | E 2.56 | F 3.04 | H 2.68 | I 2.71 | K 2.07 | L 2.71 | M 2.55 | N 2.07 | P 0.916 | Q 2.38 | R 2.08 | S 2.6 | T 2.51 | V 2.73 | W 3.26 | Y 3.08

Variants of: B2
Experiment: as above
Conditions: PBS, room temperature

Folding stability dG [kcal/mol], by site and new letter:
Q39: S 1.57
A26: D 0.393
K27: Q 1.66
K23: P -0.41
